# Laboratory results reported in PMC11381335, “Unraveling the structure and function of a novel SegC protein interacting with the SegAB chromosome segregation complex in Archaea” (Nucleic Acids Research, 2024).
# Tests used:
# [1] = target: T1, SegC (SSO0033) (Saccharolobus solfataricus, UniProt Q981B4); test: X-ray crystal structure of ATP-soaked SegC crystals; type: binding; conditions: apo crystals soaked within one minute in 20 mM ATP, 2 mM MgCl2, pH 7.5; ADP modelled at the interface of two dimers (Tyr61, Arg73)
# T1 construct: full length 165 residues, C-terminal His6 (pET21b), E. coli BL21(DE3)
# [2] = target: T1, SegC (SSO0033); test: malachite green phosphate release; type: biochemical; conditions: 10 uM protein, 1 mM NTP, 2 mM MgCl2, 100 mM NaCl, pH 7.5, 37 °C, 1 h; no DNA
# [3] = target: SegC labeled with Alexa488 green-fluorescent dye (Saccharolobus solfataricus); test: fluorescence polarisation; 10 nM Alexa488-labeled SegC; SegA or SegB in 2-fold serial dilution from 10 uM; room temperature, 30 min; 20 mM HEPES-NaOH pH 7.3, 100 mM NaCl, 2 mM MgCl2; concentration of protein that binds 50% of the labeled SegC
# [4] = target: SegC (SSO0033) (Saccharolobus solfataricus); test: crystal structure; SegC crystals grown in 100 mM Tris-HCl pH 8.5, 300 mM potassium thiocyanate, 20°C; 2.8 Å; also soaked with 20 mM ATP (SegC-ADP)
# Chain of SegC labeled with Alexa488 green-fluorescent dye (Saccharolobus solfataricus) (Q981B4 entry or part of it): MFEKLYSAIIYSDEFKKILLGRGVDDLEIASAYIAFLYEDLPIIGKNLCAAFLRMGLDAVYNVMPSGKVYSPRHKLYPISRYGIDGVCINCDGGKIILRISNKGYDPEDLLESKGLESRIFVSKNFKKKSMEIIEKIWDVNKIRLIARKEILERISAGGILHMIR
# T1 sequence (Q981B4 entry or part of it): as above
molecule,measurement,setting,value
Nc1ncnc2c1ncn2[C@@H]1O[C@H](COP(=O)(O)OP(=O)(O)O)[C@@H](O)[C@H]1O [ADP],X-ray crystal structure of ATP-soaked SegC crystals,[1],"In this SegC-ADP complex structure, two residues (Tyr61 and Arg73) were found to interact"
Nc1ccn([C@@H]2O[C@H](COP(=O)(O)OP(=O)(O)OP(=O)(O)O)[C@@H](O)[C@H]2O)c(=O)n1 [CTP],malachite green phosphate release,[2],SegC exhibited catalytic activity against all of the tested NTPs with no apparent preference
SegA (natural protein),Kd,[3],1800 nM
SegB (natural protein),Kd,[3],1400 nM
SegC (SSO0033) (natural protein),stoichiometry N,[4],4
